Assay results reported in patent US20240270846A1 (published 2024).

Biological target: T1, CD3 epsilon homodimer protein (UniProt P07766 23-126)
T1 construct: Construct of the homodimer is not described; also called CD3 (CD3 epsilon)
Assay: SPR Biacore T200, CD3e homodimer on chip, antibody analyte;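 note: CD3 epsilon homodimer amine-coupled on CM4 sensor chip, antibodies injected as analyte at 25 °C in HBS-EP+, ratio ≥0.8 taken as binding retained versus unaltered parent antibody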

T1 sequence (P07766 23-126): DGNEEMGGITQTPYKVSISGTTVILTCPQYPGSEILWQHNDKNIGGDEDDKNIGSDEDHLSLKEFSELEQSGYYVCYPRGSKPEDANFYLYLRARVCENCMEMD

| ratio of amounts bound (altered form/GLS3000) | Binder |
| --- | --- |
| 0.66 | GLS3000 V94R one-arm antibody (antibody, human IgG1, kappa, L234A L235A, N297A, name in Kabat numbering) light: DIVMTQSPLSLPVTPGEPASISCRSSQSLVHSNRNTYLHWYQQKPGQAPRLLIYKVSNRFSGVPDRFSGSGSGTDFTLKISRVEAEDVGVYYCGQGTQRPYTFGQGTKLEIKRTVAAPSVFIFPPSDEQLKSGTASVVCLLNNFYPREAKVQWKVDNALQSGNSQESVTEQDSKDSTYSLSSTLTLSKADYEKHKVYACEVTHQGLSSPVTKSFNRGEC heavy: QVQLVESGGGVVQPGRSLRLSCAASGFTFSNAWMHWVRQAPGKGLEWVAQIKAKSNNYATYYAESVKGRFTISRDDSKNSLYLQMNSLKTEDTAVYYCRYVHYGAYYGVDAWGQGTTVTVSSASTKGPSVFPLAPSSKSTSGGTAALGCLVKDYFPEPVTVSWNSGALTSGVHTFPAVLQSSGLYSLSSVVTVPSSSLGTQTYICNVNHKPSNTKVDKKVEPKSCDKTHTCPPCPAPEAAGGPSVFLFPPKPKDTLMISRTPEVTCVVVDVSHEDPEVKFNWYVDGVEVHNAKTKPREEQYASTYRVVSVLTVLHQDWLNGKEYKCKVSNKALPAPIEKTISKAKGQPREPQVYTLPPSRCELTKNQVSLSCAVKGFYPSDIAVEWESNGQPENNYKTTPPVLDSDGSFFLVSKLTVDKSRWQQGNVFSCSVMHEALHNHYTQKSLSLSPDYKDDDDK EPKSSDKTHTCPPCPAPELLGGPSVFLFPPKPKDTLMISRTPEVTCVVVDVSHEDPEVKFNWYVDGVEVHNAKTKPREEQYNSTYRVVSVLTVLHQDWLNGKEYKCKVSNKALPAPIEKTISKAKGQPREPQVCTLPPSRDELTKNQVSLWCLVKGFYPSDIAVEWESNGQPENNYKTTPPVLDSDGSFFLYSKLTVDKSRWQQGNVFSCSVMHEALHNRYTQKSLSLSP |
| 0.93 | GLS3000 V94S one-arm antibody (antibody, human IgG1, kappa, L234A L235A, N297A, name in Kabat numbering) light: DIVMTQSPLSLPVTPGEPASISCRSSQSLVHSNRNTYLHWYQQKPGQAPRLLIYKVSNRFSGVPDRFSGSGSGTDFTLKISRVEAEDVGVYYCGQGTQSPYTFGQGTKLEIKRTVAAPSVFIFPPSDEQLKSGTASVVCLLNNFYPREAKVQWKVDNALQSGNSQESVTEQDSKDSTYSLSSTLTLSKADYEKHKVYACEVTHQGLSSPVTKSFNRGEC heavy: QVQLVESGGGVVQPGRSLRLSCAASGFTFSNAWMHWVRQAPGKGLEWVAQIKAKSNNYATYYAESVKGRFTISRDDSKNSLYLQMNSLKTEDTAVYYCRYVHYGAYYGVDAWGQGTTVTVSSASTKGPSVFPLAPSSKSTSGGTAALGCLVKDYFPEPVTVSWNSGALTSGVHTFPAVLQSSGLYSLSSVVTVPSSSLGTQTYICNVNHKPSNTKVDKKVEPKSCDKTHTCPPCPAPEAAGGPSVFLFPPKPKDTLMISRTPEVTCVVVDVSHEDPEVKFNWYVDGVEVHNAKTKPREEQYASTYRVVSVLTVLHQDWLNGKEYKCKVSNKALPAPIEKTISKAKGQPREPQVYTLPPSRCELTKNQVSLSCAVKGFYPSDIAVEWESNGQPENNYKTTPPVLDSDGSFFLVSKLTVDKSRWQQGNVFSCSVMHEALHNHYTQKSLSLSPDYKDDDDK EPKSSDKTHTCPPCPAPELLGGPSVFLFPPKPKDTLMISRTPEVTCVVVDVSHEDPEVKFNWYVDGVEVHNAKTKPREEQYNSTYRVVSVLTVLHQDWLNGKEYKCKVSNKALPAPIEKTISKAKGQPREPQVCTLPPSRDELTKNQVSLWCLVKGFYPSDIAVEWESNGQPENNYKTTPPVLDSDGSFFLYSKLTVDKSRWQQGNVFSCSVMHEALHNRYTQKSLSLSP |
